The nature of the data set: protein stability index of a GFP-peptide fusion (GPS, HEK-293T) (PSI 1-6); higher = more stable. Particulars: c terminus: native.
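Also: lentivirally expressed fusion library, cells FACS-sorted into six equal-sized GFP/DsRed ratio bins, PSI computed from sequencing read fractions per bin weighted by bin number.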

B1: POLD2 addL (peptide)
chain: CQPISFSGFGAEDDDLGGLGLGPL
Regarding B1, the protein stability index (parent: NP_006221.1) came to 2.66.

B2: SNF8 addL (peptide)
chain: LPALFTDLYSQEITAEEAREALPL
Take B2: the protein stability index (parent: NP_009172.2) came to 3.71.

B3: TRPA1 addL (peptide)
chain: EQRNSRWNTVLRAVKAKTHHLEPL
B3: the protein stability index (parent: NP_015628.1) was 4.2.

B4: PSMB5 addL (peptide)
chain: DGWIRVSSDNVADLHEKYSGSTPL
On to B4, for which the protein stability index (parent: NP_002788.1) was 3.47.

For the origin of these results see the supplement of paper PMC10567573.
